Measurements published in article PMC10475540, “The teleost fish PepT1-type peptide transporters and their relationships with neutral and charged substrates” (Frontiers in Physiology, 2023).
Peptide text beside a SMILES is read from it.

Key:
zfPepT1b = target: T1, zfPepT1b (Danio rerio, UniProt Q7SYE4); assay: two-electrode voltage clamp, transport current, Xenopus oocytes; type: cell-based; settings: 1 mmol/L, pH 7.6, -60 mV
T1 construct: gene slc15a1b; complete ORF in pSPORT1, cRNA-injected Xenopus laevis oocytes
T1 sequence (Q7SYE4 1-718): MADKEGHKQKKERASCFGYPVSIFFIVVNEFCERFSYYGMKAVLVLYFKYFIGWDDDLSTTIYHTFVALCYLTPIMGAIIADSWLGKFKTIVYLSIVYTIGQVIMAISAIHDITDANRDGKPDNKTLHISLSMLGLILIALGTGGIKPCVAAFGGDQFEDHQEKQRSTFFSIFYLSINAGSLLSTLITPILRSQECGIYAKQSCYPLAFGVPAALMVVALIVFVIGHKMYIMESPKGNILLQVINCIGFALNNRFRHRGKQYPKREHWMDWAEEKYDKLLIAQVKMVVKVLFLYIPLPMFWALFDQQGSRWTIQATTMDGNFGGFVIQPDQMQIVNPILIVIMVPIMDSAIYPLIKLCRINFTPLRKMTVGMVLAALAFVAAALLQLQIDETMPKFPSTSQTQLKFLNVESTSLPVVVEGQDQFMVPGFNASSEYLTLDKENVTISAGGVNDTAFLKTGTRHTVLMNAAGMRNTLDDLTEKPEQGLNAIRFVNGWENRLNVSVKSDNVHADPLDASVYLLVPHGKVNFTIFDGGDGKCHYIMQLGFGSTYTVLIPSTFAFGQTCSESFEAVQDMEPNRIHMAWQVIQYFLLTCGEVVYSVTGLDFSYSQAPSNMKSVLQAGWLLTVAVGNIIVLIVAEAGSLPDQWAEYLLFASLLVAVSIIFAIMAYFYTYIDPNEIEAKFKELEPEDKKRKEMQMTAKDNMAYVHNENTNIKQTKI

[1] = substrate: NCCCC[C@H](N)C(=O)NCC(=O)O; assay: cells, lysate or membranes; settings: pH 7.6, -140 mV, estimate, saturation not reached up to 30 mmol/L
[2] = substrate: NCCCC[C@H](N)C(=O)NCC(=O)O; assay: two-electrode voltage clamp, transport current, Xenopus oocytes; type: cell-based, Salmo salar; settings: pH 7.6, -140 mV, strongly voltage dependent
[3] = substrate: NCC(=O)N[C@@H](CC(=O)O)C(=O)O; assay: as above; type: cell-based, Danio rerio; settings: pH 7.6, -60 mV, 18 degC incubation of oocytes, proton-coupled transport, 18.0 °C
Description: (§1) two-electrode voltage clamp, transport current, Xenopus oocytes on zfPepT1a

[4] = substrate: NCCCC[C@H](N)C(=O)NCC(=O)O; assay: as above; type: cell-based, Danio rerio; settings: pH 7.6, -60 mV
Description: as §1

CSCC[C@H](NC(=O)[C@@H](N)CCCCN)C(=O)O [Lys-Met]
two-electrode voltage clamp, transport current, Xenopus oocytes (zfPepT1b): in zebrafish PepT1b Lys-Met and Met-Lys show comparable currents

NCC(=O)N[C@@H](CCC(N)=O)C(=O)O [Gly-Gln] (H-Gly-Gln-OH)
two-electrode voltage clamp, transport current, Xenopus oocytes (zfPepT1b; reference substrate): Gly-Lys and Lys-Gly currents are significantly reduced in amplitude if compared to those generated by Gly-Gln

B1: asPepT1a (Salmo salar) (protein)
chain: MTDEEVVKKGKSKEVCGYPLSIFFIVVNEFCERFSYYGMRAVLVLYFRYFLRFDDDLATSIYHTFVALCYLTPILGAVVADSWLGKFKTIIYLSIVYAIGQVVMAVSAIHDITDTDRDGTPDNLTLHIVLSMVGLLLIALGTGGIKPCVAAFGGDQFQDHQAKQRSTFFSVFYLCINGGSLLSTIITPILRGQECGIHSQQKCYPLAFGVPAALMVVALVVFIIGSGMYHKTEPQGNIMLDVCKCIGFAVKNRFRHRSSSYPKRTHWMDWAEEKYEKLLIAQIKMVLKVLFLYIPLPMFWTLFDQKGSRWTLQATTMDGNFGSLILQPDQMQTVNPILILTLVPIMDSVVYPLIKKCGLNFTPLRRMTVGMFLAAMAFVAAALVQIQIDKTLPTFPSSSQSQLKLLNMGSIPLTVTLPNNDPFVIEAAKANANYLTFEEESINVSFQSPAISRTISLAKGKRQTLLIPSNLSAPMWEMTDDLMAKPEQGANAIRFVNGMAGAVNVSTFGSIEYSSASNYSLISNGKATFTITNGANTCEYSREFGFGSSYTLLIPSHFAWGLTCSESISGVEDIQPNSFHMGWQIPQYFLITCGEVVFSVTGLEFSYSQAPSNMKAVLQAGWLFTVAIGNFIVLIVAEIAQIEEQWAEFVLFASLLVAVCVIFSIMAYFYTYMDPAEIEAQFTDNGGKEESDKEELQMQKKDVVDHHNEDDEAKQTKM
K0.5 [1]: 6.33 ± 0.78 mmol/L

B2: asPepT1b (Salmo salar) (protein)
chain: MTDIDVKKSKRKVDVCGYPLSIFFIVVNEFCERFSYYGMRAVLVLYFRYFLKWDDDLSTSIYHTFIALCYLTPILGAIVADSWLGKFKTIVYLSIVYTVGQVVMAVSAIHDITDTDRDGTPDNMTFHVAMSMVGLFLIALGTGGIKPCVAAFGGDQFEEHQEKQRSTFFSIFYLSINAGSLLSTVITPILRGQECGIHSQQKCYPLAFGVPAALMVVALIVFIMGSGMYNKTAPKGNIMLEVCKCIGFAVKNRFRHRSKKFPKREHWMDWADEKYDKLLVAQVKMVLKVMFLYIPLPMFWTLFDQQGSRWTLQATTMDGNFGILTVQPDQMQTVNPILILALVPIMDSLVYPLIKKCHLNFTPLKRMTVGMLIAALAFVAAALLQLQIDQTLPKLPQGVAGQVKFLNLNSAPLTLTIDGTIDVSVPAHQVNTGDYLTFDKSVRVVFNKNTSTGTDLILMSQTRRTALVSPTLDMNLVYDLSKKPDDGMNAIRFVNGLGSALNVTLGVGDIAPLAVSNYSLVPQGKAEFTIMNSGGASCLYSIDLGFGSAFTLLIPSTFTIGSPDCWQAIQVVEDIQPNTIHMGWQIPQYFLMTGGEVVFSVTGLEFSYSQAPSNMKSVLQAGWLFTVAVGNIIVLIVAEAAQLPDQWAEYILFASLLVVVCIVFAIMSYFYTYTDPAEIEAEFRQPEHGPERKRDQVEMERKDSDCSKSSKGSDMKKKDSVVEQLNQEVKQSKM
notes: complete ORF in pSPORT1, cRNA-injected Xenopus laevis oocytes
K0.5 [2]: 0.18 ± 0.01 mmol/L

B3: zfPepT1a (Danio rerio) (protein)
chain: MPDSKMDETKKKKKKTAECCGYPISIFFIVVNEFCERFSYYGMRAVLVLYFRYFLLWDDDLATSIYHAFVALCYLTPILGAIIADSWLGKFKTIIYLSIVYAVGQVVMAVSTIHDITDANRDGTPDNFTLHIALSMLGLVLIALGTGGIKPCVAAFGGDQFQEHQSRQLNTFFSVFYLCINAGSLLSTLITPVLRAQECGIHTQQQCYPLAFGVPAALMVVSLVVFIAGSGMYTKTAPEGNIMGSVCKCIWFALNNRFRHRSDIYPKREHWMDWAEEKYDKLLIAQIKMVLKVLFLYIPLPMFWTLFDQKGSRWTLQATTMTGDFGGFVLQPDQMQTVNPILILTLVPIMDRIIFPLIKKCGLNFSPLKRMTVGMLFAATAFIAAALVQMEIDKTLPNFPSSSESQLKVVNMHSESLIVTVPSQEPLLIGSFESSPDYITFDQQDIRLAFNTTPEINKDLSLIKGSRQTLIIPSEPAEMYLKEDIKSKPKEGKNAVRFVNGWTAYLNITNLESSLQPSETSNYTLVSQGMRKFTLTDGIQSCEFSRKFGFGSSYTFLIPSDLFSTDCESIKEIEDMQPNSVHMALQIPQYFLITTGEVMFSVTGLQFSYSQAPKNMKSVLQAGWLCTNAVGNIIVLIVAELGKLPKQWAEYVLFASLLVAVSIIFSIMAYFYTYIDPAEIEAEILKQQETDPDKKKKKETLEMEEKENEQEIKQTKI
notes: as for B2
K0.5 [3]: 5.89 ± 2.14 mmol/L
K0.5 [4]: 18.35 ± 3.51 mmol/L
